Test: In vivo cis-α-irone production from glucose/glycerol in strain 2O31 cultures
Assay type: cell-based, Escherichia coli
Conditions: pMT plasmid transformed into strain 2O31; 2 days
Excerpt: The advantage of in vivo biotransformation is that microbial cells can regenerate expensive co-factors rendering the scale-up bioprocess more cost-effective. […] Thus, pMT was incorporated into our psi-ionone producing microbe^7,8, to synthesize cis-α-irone from cheap renewable carbon sources (glucose/glycerol) (FIG. 4 and FIG. 19). To achieve high productivity, the psi-ionone production was first optimized by multidimensional heuristic process (MHP)^15, and strain 2O31 was identified to be the highest producer for psi-ionone (FIG. 19b). 2O31 was used as the base strain to probe cis-α-irone production in vivo (Table 5). Moreover, to improve the plasmid stability, auxotrophic strain was used with chemically defined media^1. The plasmid carrying pMT1, pMT7 or pMT10 was transformed into the strain 2O31, and produced less than 0.01, about 2 and about 3 mg/L cis-α-irone respectively in 2 days (FIG. 19d). To further optimize irone production with pMT10, three different culture conditions were tested: no methionine or dodecane added (control); 10 mM methionine added; 10 mM methionine and 20% dodecane added. In the control reaction, approximately 4.8 mg/L or 0.85 mg/L/OD cis-α-irone was produced after 3-day incubation (2O31-pMT10, FIGS. 4c and 4e). […] Lastly, when both methionine and dodecane were added, psi-ionone was accumulated in the organic layer and only ˜0.3 mg/L or ˜0.05 mg/L/OD cis-α-irone was produced (2O31-pMT10, FIGS. 4c, d and e). […] The limited methylation efficiency might be due to insufficient cofactor or SAH inhibition. […] In fact, the total amount of psi-ionone and cis-α-irone decreased (FIG. 4c, and d). As SAM biosynthesis is regulated by metJ in E. coli^16,17, the aforementioned six reactions were subsequently examined under metJ deleted genetic background (2O31, ΔmetJ). An increase in cis-α-irone titer to ˜5.7 mg/L was produced by 2O31 ΔmetJ-pMT10 strain with 10 mM methionine supplementation (FIG. 4c). An increase in specific cis-α-irone titer to ˜1.2 mg/L/OD was produced by 2O31 ΔmetJ-pMT10r strain without methionine supplementation (FIG. 4d). […]

Molecule | cis-α-irone produced
pMT7: pMT1 with Y200F S182E L273V L180A A202L Y65F (protein, Modified from pMT1, pMT1 with Y200F S182E L273V L180A A202L Y65F) MPQEARTPQQQVTADEVGDWYDKFGEVYHLTLGESVHCGLWFPPDAPVPQDMELVTMSSQAQDRFTDYLIETLDPKAGQHLLDIGCGTGRTALKAARQRGIAVTGVAVSKEQIAAANRLAAGHGLTERLTFEVADAMRLPYEDESFDCAWAIESLCHMDRAKALGEAWRVLKPGGDLLVAEEVVTEELTEPETALFETLFALNVPPRLGEFFDIVSGAGFHTLSLKDLSANLAMTMNVFALGVYSRRAEFTERFGAEFVDGLLAGLGSAQETVIRKTRFFMATLRKPAV | about 2 mg/L
pMT10: pMT1 with Y200F S182E L273V L180A A202L Y65F C156A T91P (protein, Modified from pMT1, pMT1 with Y200F S182E L273V L180A A202L Y65F C156A T91P) MPQEARTPQQQVTADEVGDWYDKFGEVYHLTLGESVHCGLWFPPDAPVPQDMELVTMSSQAQDRFTDYLIETLDPKAGQHLLDIGCGTGRPALKAARQRGIAVTGVAVSKEQIAAANRLAAGHGLTERLTFEVADAMRLPYEDESFDCAWAIESLAHMDRAKALGEAWRVLKPGGDLLVAEEVVTEELTEPETALFETLFALNVPPRLGEFFDIVSGAGFHTLSLKDLSANLAMTMNVFALGVYSRRAEFTERFGAEFVDGLLAGLGSAQETVIRKTRFFMATLRKPAV | about 3 mg/L

Source: patent publication US20240240209A1, “SYNTHESIS OF ENANTIOPURE CIS-A-IRONE FROM A RENEWABLE CARBON SOURCE” (Agency for Science, Technology and Research, priority 2021, published 2024)
